The values below come from US20150087812A1 (Janssen / Centocor, published 2015).

For experiment [1], the target named is T1, recombinant human ATX beta isoform with N-terminal purification tag (human, UniProt Q13822 49-863). Description: cell-based or functional assay.
Experiment [2] concerns the target recombinant mouse ATX beta isoform (R&D Systems, Cat No. 6187-EN-010) (mouse, UniProt Q9R1E6 36-862). The experiment in a line: cell-based or functional assay.
In experiment [3] the target is T1, recombinant human ATX beta isoform with …. Description: SPR Biacore 3000, His-ATX beta captured on anti-Penta-His, mAb as analyte, bivalent analyte model. Here is the method: (§1) Affinity measurements using surface plasmon resonance (SPR) were performed using a Biacore 3000 optical biosensor (Biacore) for ATXB3, ATXB6, ATXB8, ATXB9, ATXB13, and ATXB14. A biosensor surface was prepared by coupling anti-Penta-His antibody (Qiagen, Cat No. 34660) to the carboxymethylated dextran surface of a CM-5 chip (Biacore, Cat No. BR-1000-14) using the manufacturer instructions for amine-coupling chemistry. Approximately 15,000 RU (response units) of anti-Penta-His antibody were immobilized in each of four flow cells. The kinetic experiments were performed at 25° C. in running buffer (PBS+0.01% P20+100 ug/ml BSA). Serial dilutions of anti-ATX mAbs (ATXB3, B6, B8, B9, B13, B14) from 900 nM to 0.412 nM were prepared in running buffer. About 80 RU of human ATX beta-His tagged proteins were captured on flow cell 2 of the sensor chip. Flow cell 1 was used as reference surface. Capture of ATX was followed by five minutes injection (association phase) of anti-ATX mAbs at 50 uL/min, followed by 15 minutes of buffer flow (dissociation phase). The chip surface was regenerated by 15 seconds injection of 100 mM H₃PO₄ (Sigma, Cat No. 7961) at 50 uL/min. The collected data were processed using BIAevaluation software, version 3.2 (Biacore). First, double reference subtraction of the data was performed by subtracting the curves generated by buffer injection from the reference-subtracted curves for analyte injections. Then kinetic analysis of the data was performed using the Bivalent Analyte binding model with global fitting. Kd1 (Kₒₙ) was calculated as intrinsic KD with minimum avidity. The result for each mAb was reported in the format of Ka1 (On-rate, Kₒₙ), Kd1 (Off-rate, Koff) and KD1 (Equilibrium dissociation constant). Affinity measurements for ATXB18 were performed on a Proteon XPR36 system (Bio-Rad), using a protocol similar to the one used on the Biacore platform.
The five mAbs with the lowest IC50 values in the inhibition assays as well as ATXB3, a non-neutralizing antibody, were tested for their affinity to the human ATX-beta isoform, as measured by surface plasmon resonance. Due to nonspecific binding of the ATX antigen to the chip surface, these experiments had to be conducted in the reverse format, with ATX immobilized on the chip surface (ligand) and our antibodies in solution (analyte).

The target is the same in experiment [4]. Description: SPR ProteOn XPR36, protocol similar to the Biacore one, bivalent analyte model. Here is the method:
as §1, with “Affinity measurements for ATXB18 were performed on a Proteon XPR36 system (Bio-Rad), using a protocol similar to the one used on the Biacore platform.” left out
The five mAbs with the lowest IC50 values in the inhibition assays as well as ATXB3, a non-neutralizing antibody, were tested for their affinity to the human ATX-beta isoform, as measured by surface plasmon resonance. […]

Broadly, the koff is a measure of how fast the partners let go of each other. Usually kon stands for a measure of how fast the partners come together.

B1: mAb ATXB13 (antibody, V domains shown)
VH: QVQLVQSGAEVKKPGSSVKVSCKASGGTFSSYAISWVRQAPGQGLEWMGGIIPIFGTANYAQKFQGRVTITADESTSTAYMELSSLRSEDTAVYYCARDFSVYGDFDYWGQGTLVTVSS
VL: DIQMTQSPSSLSASVGDRVTITCRASQSIAKWLNWYQQKPGKAPKLLIYAASSLQSGVPSRFSGSGSGTDFTLTISSLQPEDFATYYCQQSYSTPLTFGQGTKVEIK
notes: Human IgG1/kappa from Fab F143
B1: the “IC50, inhibition of LPC hydrolysis by human ATX beta (1.5 nM), coupled choline oxidation (Amplex Red) assay” value in experiment [1] is 1 nM. Moreover, the “IC50, inhibition of LPC hydrolysis by mouse ATX, coupled choline oxidation (Amplex Red) assay” value in experiment [2] came out at 0.5 nM. Also, in experiment [3], the Kd came out at 0.6 nM, the koff came out at 0.000329 s⁻¹ and the kon was determined as 274000 M⁻¹ s⁻¹.

B2: mAb ATXB18 (antibody, V domains shown)
VH: QVQLVQSGAEVKKPGSSVKVSCKASGGTFSSYAISWVRQAPGQGLEWMGGIIPIFGTANYAQKFQGRVTITADESTSTAYMELSSLRSEDTAVYYCARDASTYGDLDYWGQGTLVTVSS
VL: DIQMTQSPSSLSASVGDRVTITCRASQSIDGWLNWYQQKPGKAPKLLIYAASSLQSGVPSRFSGSGSGTDFTLTISSLQPEDFATYYCQQSYSTPLTFGQGTKVEIK
notes: Human IgG1/kappa from Fab F97
For B2, in experiment [4], the Kd turned out to be 0.673 nM, the koff came out at 0.000614 s⁻¹ and the on-rate constant (kon) was 949000 M⁻¹ s⁻¹.

B3: mAb ATXB14 (antibody, V domains shown)
VH: QVQLVQSGAEVKKPGSSVKVSCKASGGTFSSYAISWVRQAPGQGLEWMGGIIPIFGNTNYAQKFQGRVTITADESTSTAYMELSSLRSEDTAVYYCARDISGYGDLDYWGQGTLVTVSS
VL: DIQMTQSPSSLSASVGDRVTITCRASQSIDGWLNWYQQKPGKAPKLLIYAASSLQSGVPSRFSGSGSGTDFTLTISSLQPEDFATYYCQQSYSTPLTFGQGTKVEIK
notes: Human IgG1/kappa from Fab F104
On to B3, for which the “IC50, inhibition of LPC hydrolysis by human ATX beta (1.5 nM), coupled choline oxidation (Amplex Red) assay” value in experiment [1] was found to be 0.8 nM. The “IC50, inhibition of LPC hydrolysis by mouse ATX, coupled choline oxidation (Amplex Red) assay” value in experiment [2] was found to be 1.5 nM. In addition, in experiment [3], the Kd was determined as 0.369 nM, the koff amounted to 0.000583 s⁻¹ and the kon was 789000 M⁻¹ s⁻¹.

B4: mAb ATXB9 (antibody, V domains shown)
VH: QVQLVQSGAEVKKPGSSVKVSCKASGGTFSSYAISWVRQAPGQGLEWMGGISPYFGNANYAQKFQGRVTITADESTSTAYMELSSLRSEDTAVYYCARYGDFGGNVFTEFDYWGQGTLVTVSS
VL: EIVLTQSPGTLSLSPGERATLSCRASQSVNNSDLAWYQQKPGQAPRLLIYTASSRATGIPDRFSGSGSGTDFTLTISRLEPEDFAVYYCQQATTVPLTFGQGTKVEIK
notes: Human IgG1/kappa from Fab F89
As for B4, the “IC50, inhibition of LPC hydrolysis by human ATX beta (1.5 nM), coupled choline oxidation (Amplex Red) assay” value in experiment [1] turned out to be 14.5 nM. In addition, the “IC50, inhibition of LPC hydrolysis by mouse ATX, coupled choline oxidation (Amplex Red) assay” value in experiment [2] stood at 9.3 nM. In experiment [3], the Kd amounted to 47.8 nM, the off-rate (koff) came out at 0.000322 s⁻¹ and the on-rate constant (kon) was found to be 3370 M⁻¹ s⁻¹.
